Experimental data as given in article PMC2192062.

Biological target: H-2Kb, peptide-free ('empty') MHC class I molecule on RMA-S cells (mouse | mouse (endogenous in RMA-S))
Assay: MHC stabilization assay

Substance “SIINFEKL, CTL epitope derived from ovalbumin (peptide)” has an SI (stabilization index) of 450 to 500.
